# Measurements: publication PMC4972676 (Structure (London, England : 1993), 2016)
# B1: hPLIC2 ubiquitin-like (UBL) domain (domain or fragment, human, UniProt Q9UHD9 33-107, looked up)
# chain: IKVTVKTPKEKEEFAVPENSSVQQFKEAISKRFKSQTDQLVLIFAGKILKDQDTLIQHGIHDGLTVHLVIKSQNR
# B2: GST-hRpn13^Pru (domain or fragment, human)
# chain: TTSGALFPSLVPGSRGASNKYLVEFRAGKMSLKGTTVTPDKRKGLVYIQQTDDSLIHFCWKDRTSGNVEDDLIIFPDDCEFKRVPQCPSGRVYVLKFKAGSKRLFFWMQEPKTDQDEEHCRKVNEYLNNPPMPGALGASGSSGHELSAL
# Tests used:
# [1] = target: hRpn13 pleckstrin-like receptor for ubiquitin (Pru) domain (human, UniProt Q16186 1-150); test: ITC
# [2] = target: M1 diubiquitin (UniProt P0CG48 1-76; P0CG48 1-76); test: pull-down
# hRpn13 pleckstrin-like receptor for ubiquitin (Pru) domain, sequence (Q16186 1-150): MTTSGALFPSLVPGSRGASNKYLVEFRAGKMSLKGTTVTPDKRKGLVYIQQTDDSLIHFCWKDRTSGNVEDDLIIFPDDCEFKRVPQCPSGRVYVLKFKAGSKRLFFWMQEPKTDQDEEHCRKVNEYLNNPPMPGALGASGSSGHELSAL
Kd [1] [µM],binding result [2],Binder
9.3 ± 0.5,,B1
,binds,B2
